Assays:
mouse CRHR2 = test: CRH-induced luciferase reporter blocking assay, CHO-CRE-mCRHR2 cells; assay type: cell-based
Protocol: To create CHO-CRE-hCRHR1, -hCRHR2, -mCRHR1, and -mCRHR2 reporter cell lines, pcDNA3.1-hCRHR1, -hCRHR2, -mCRHR1, and -mCRHR2 were introduced into CHO-CRE cells established above by electroporation as described above. Selection antibiotics hygromycin at 500 μg/ml and G418 at 1,000 μg/ml were employed. Individual established stable cell lines were characterized by both CRH and forskolin stimulation. […]
(§1) Cells were digested by trypsin-EDTA (Life technologies, Cat #:12604-013), centrifuged at 1,000 rpm for 5 min, resuspended in growth medium, counted using a cell counter, seeded at a concentration of 5,000 cells per 100 μl in 96-well flat plates, and incubated overnight. 50 μl of 4× serially diluted antibodies was added (8 points, 1/4 diluted by growth medium) to plates containing CHO-CRE-hCRHR1 cells, and 50 μl of 4×CRH (4× is 2 nM, final is 0.5 nM) was added. Similarly, 4×CRH (4× is 0.4 nM, final is 0.1 nM) was added to CHO-CRE-hCRHR2 cells and CHO-CRE-mCRHR1 cells, and 4×CRH (4× is 20 nM, final is 5 nM) was added to CHO-CRE-mCRHR2 cells. Next, plates were incubated 4-6 hours at 37° C. in a CO2 incubator. 60 μl of culture medium was removed, to which was added 60 μl of Bio-Glo luciferase, followed by incubation for 10 min at RT. Plates were read in a luciferase plate reader (EnVision, PerkinElmer).

human CRHR2 = test: CRH-induced luciferase reporter blocking assay, CHO-CRE-hCRHR2 cells; assay type: cell-based
Protocol: To create CHO-CRE-hCRHR1, -hCRHR2, -mCRHR1, and -mCRHR2 reporter cell lines, pcDNA3.1-hCRHR1, -hCRHR2, -mCRHR1, and -mCRHR2 were introduced into CHO-CRE cells established above by electroporation as described above. Selection antibiotics hygromycin at 500 μg/ml and G418 at 1,000 μg/ml were employed. Individual established stable cell lines were characterized by both CRH and forskolin stimulation.
Activated GPCR proteins increase production of the intracellular cAMP. CHO-CRE-human CRHR1 stable clone 11 was generated by introduction of pcDNA3.1-human CRHR1 under the selection of G418 and hygromycin. Human CRHR1 expression in CHO-CRE-hCRHR1 Clone 11 was confirmed by flow cytometry (data not shown). To further validate that the cell line was functional, CHO-CRE-hCRHR1 Clone 11 cells were treated with forskolin and CRH peptide. […] Subsequently CHO-CRE-hCRHR2 Clone 32, -mCRHR1 Clone 22, and -mCRHR2 Clone 8 cell lines were established using similar methodology and validated with CRH treatment (data not shown).
Blocking CRHR1 by small molecules or neutralization of CRH peptide can reduce luciferase expression if the CRH-CRHR1 system works in CHO-CRE-hCRHR1 cells. Antalarmin, a small molecule CRHR1 antagonist, blocked CRH-mediated luciferase expression in CHO-CRE-hCRHR1 Clone 11 (data not shown). Furthermore, sheep anti-CRH polyclonal antibody reduced CRH-mediated luciferase expression in these cells (data not shown). Likewise, sheep anti-CRH polyclonal antibody blocked CRH-mediated luciferase expression in CHO-CRE-hCRHR2, CHO-CRE-mCRHR1, and CHO-CRE-mCRHR2 cells (data not shown).
as §1

[1] = CHO-CRE-hCRHR2 cells, 0.1 nM CRH

Row | Molecule | IC50 (mouse CRHR2; CHO-CRE-mCRHR2 cells, 5 nM CRH) [nM] | IC50 (human CRHR2; [1]) [nM] | IC50 (mouse CRHR2; Table 9, mCrhr2) [nM] | IC50 (human CRHR2; Table 9, hCRHR2) [nM]
1 | PR302029: humanized variant of Series 5 mAb PR301777; VH SEQ ID NO: 255, VL SEQ ID NO: 310 (antibody, V domains shown, PR302029 VH, PR302031 VH, PR302034 VH; PR302029 VL, PR302036 VL, PR302043 VL, PR302050 VL, PR302064 VL) VH: EVQLVESGGGLVQPGGSLRLSCAASGFTFSNYWMNWVRQAPGKGLEWVGEIRLKSNNYATHYAESVKGRFTISRDDSKNSLYLQMNSLKTEDTAVYYCTVGTLVYWGQGTLVTVSS VL: DIVLTQSPDSLAVSLGERATINCRASQSVSTSTYNYMHWFQQKPGQPPKLLIKFASNLESGVPDRFSGSGSGTDFTLTISSLQAEDTAVYYCQHSWEIPYTFGQGTKLEIK | 8.08 | 5.75 |  | 
2 | PR302036: humanized variant of Series 5 mAb PR301777; VH SEQ ID NO: 256, VL SEQ ID NO: 310 (antibody, V domains shown, PR302036 VH, PR302038 VH, PR302041 VH; PR302029 VL, PR302036 VL, PR302043 VL, PR302050 VL, PR302064 VL) VH: EMQLVESGGGLVQPGGSLRLSCAASGFTFSNYWMNWVRQAPGKGLEWVAEIRLKSNNYATHYAESVKGRFTISRDDSKSSVYLQMNSLKTEDTAVYYCTVGTLVYWGQGTLVTVSS VL: DIVLTQSPDSLAVSLGERATINCRASQSVSTSTYNYMHWFQQKPGQPPKLLIKFASNLESGVPDRFSGSGSGTDFTLTISSLQAEDTAVYYCQHSWEIPYTFGQGTKLEIK | 5.42 | 2.21 |  | 
3 | PR302041: humanized variant of Series 5 mAb PR301777; VH SEQ ID NO: 256, VL SEQ ID NO: 312 (antibody, V domains shown, PR302036 VH, PR302038 VH, PR302041 VH; PR302034 VL, PR302041 VL, PR302048 VL, PR302055 VL, PR302069 VL) VH: EMQLVESGGGLVQPGGSLRLSCAASGFTFSNYWMNWVRQAPGKGLEWVAEIRLKSNNYATHYAESVKGRFTISRDDSKSSVYLQMNSLKTEDTAVYYCTVGTLVYWGQGTLVTVSS VL: DIQLTQSPSSLSASVGDRVTITCRASQSVSTSTYNYMHWFQQKPGKAPKLLIKFASNLESGVPSRFSGSGSGTDFTLTISSLQPEDTATYYCQHSWEIPYTFGQGTKLEIK | 12.4 | 4.92 |  | 
4 | PR302034: humanized variant of Series 5 mAb PR301777; VH SEQ ID NO: 255, VL SEQ ID NO: 312 (antibody, V domains shown, PR302029 VH, PR302031 VH, PR302034 VH; PR302034 VL, PR302041 VL, PR302048 VL, PR302055 VL, PR302069 VL) VH: EVQLVESGGGLVQPGGSLRLSCAASGFTFSNYWMNWVRQAPGKGLEWVGEIRLKSNNYATHYAESVKGRFTISRDDSKNSLYLQMNSLKTEDTAVYYCTVGTLVYWGQGTLVTVSS VL: DIQLTQSPSSLSASVGDRVTITCRASQSVSTSTYNYMHWFQQKPGKAPKLLIKFASNLESGVPSRFSGSGSGTDFTLTISSLQPEDTATYYCQHSWEIPYTFGQGTKLEIK | 29.3 | 10.2 |  | 
5 | PR302043: humanized variant of Series 5 mAb PR301777; VH SEQ ID NO: 257, VL SEQ ID NO: 310 (antibody, V domains shown, PR302043 VH, PR302045 VH, PR302048 VH; PR302029 VL, PR302036 VL, PR302043 VL, PR302050 VL, PR302064 VL) VH: EVQLVESGGGLVQPGGSLKLSCAASGFTFSNYWMNWVRQASGKGLEWVGEIRLKSNNYATHYAESVKGRFTISRDDSKNTAYLQMNSLKTEDTAVYYCTRGTLVYWGQGTLVTVSS VL: DIVLTQSPDSLAVSLGERATINCRASQSVSTSTYNYMHWFQQKPGQPPKLLIKFASNLESGVPDRFSGSGSGTDFTLTISSLQAEDTAVYYCQHSWEIPYTFGQGTKLEIK | 6.17 | 5.25 |  | 
6 | PR302048: humanized variant of Series 5 mAb PR301777; VH SEQ ID NO: 257, VL SEQ ID NO: 312 (antibody, V domains shown, PR302043 VH, PR302045 VH, PR302048 VH; PR302034 VL, PR302041 VL, PR302048 VL, PR302055 VL, PR302069 VL) VH: EVQLVESGGGLVQPGGSLKLSCAASGFTFSNYWMNWVRQASGKGLEWVGEIRLKSNNYATHYAESVKGRFTISRDDSKNTAYLQMNSLKTEDTAVYYCTRGTLVYWGQGTLVTVSS VL: DIQLTQSPSSLSASVGDRVTITCRASQSVSTSTYNYMHWFQQKPGKAPKLLIKFASNLESGVPSRFSGSGSGTDFTLTISSLQPEDTATYYCQHSWEIPYTFGQGTKLEIK | 6.32 | 13.9 |  | 
7 | PR302341-8: humanized variant of Series 10 mAb PR302341; VH SEQ ID NO: 281, VL SEQ ID NO: 340 (antibody, V domains shown, PR302341-10 VH, PR302341-11 VH, PR302341-12 VH, PR302341-14 VH,PR302341-67 VH, PR302341-68 VH, PR302341-69 VH, PR302341-7 VH,PR302341-8 VH, PR302341-9 VH; PR302341-19 VL, PR302341-20 VL, PR302341-21 VL, PR302341-22 VL,PR302341-23 VL, PR302341-28 VL, PR302341-29 VL, PR302341-2 VL,PR302341-41 VL, PR302341-55 VL, PR302341-56 VL, PR302341-57 VL,PR302341-) VH: QVQLVQSGAEVKKPGASVKVSCKASGYTFTDYFMKWVRQAPGQGLEWMGVINPNNGDIFYNQKFKGRVTMTVDKSTSTAYMELSSLRSEDTAVYYCARGTDRALFAYWGQGTLVTVSS VL: DVVMTQSPLSLPVTLGQPASISCRSGQSIVHSDGNTYLEWYQQRPGQSPRLLIYKVSNRFSGVPDRFSGSGSGTDFTLKISRVEAEDLGVYYCFQGSHIPWTFGGGTKVEIK | 0.82 | 0.293 |  | 
8 | PR302341-10: humanized variant of Series 10 mAb PR302341; VH SEQ ID NO: 281, VL SEQ ID NO: 336 (antibody, V domains shown, PR302341-10 VH, PR302341-11 VH, PR302341-12 VH, PR302341-14 VH,PR302341-67 VH, PR302341-68 VH, PR302341-69 VH, PR302341-7 VH,PR302341-8 VH, PR302341-9 VH; PR302341-10 VL, PR302341-24 VL, PR302341-26 VL, PR302341-43 VL,PR302341-44 VL, PR302341-45 VL, PR302341-4 VL) VH: QVQLVQSGAEVKKPGASVKVSCKASGYTFTDYFMKWVRQAPGQGLEWMGVINPNNGDIFYNQKFKGRVTMTVDKSTSTAYMELSSLRSEDTAVYYCARGTDRALFAYWGQGTLVTVSS VL: DVVMTQTPLSSPVTLGQPASISCRSGQSIVHSDGNTYLEWYQQRPGQPPRLLIYKVSNRFSGVPDRFSGSGAGTDFTLKISRVEAEDLGVYYCFQGSHIPWTFGGGTKVEIK | 1.22 | 0.143 | 1.44 | 0.83

Reference: US20260042834A1, “ANTI-CORTICOTROPIN-RELEASING HORMONE ANTIBODIES AND POLYCYSTIC OVARY SYNDROME” (HBM ALPHA THERAPEUTICS, INC., priority 2022, published 2026)
